{"source": "paper PMC3182218", "about": "“Obesity Risk Gene TMEM18 Encodes a Sequence-Specific DNA-Binding Protein” (PLoS ONE, 2011)", "proteins": {"B1": {"name": "TMEM18 produced in insect cells (N-terminal Flag-tag followed by eight histidines) (natural protein)", "chain": "not shown", "notes": "TMEM18, 140 amino acids; cloned into pK509.3 vector; Flag-tag first, then eight histidine repeats, then TMEM18; detected by anti-Flag Western blot; also called histidine and Flag-tagged TMEM18; source: Sf9 or Tn5 insect cells (baculovirus), purified (nuclear extract in dodecyl maltoside, Ni-sepharose); not shown: Flag, N-terminal, kept"}}, "target": "the molecule itself", "experiment": "dimer-sized band on SDS-PAGE Western blot; TMEM18 purified from insect cells, bound to DNA-cellulose, washed and eluted with 0.5 M, 1 M and 2 M salt; anti-Flag Western blot; dimer form approx. 34 kDa against monomer form approx. 17 kDa"}
{"protein": "B1", "values": [{"measurement": "binding result", "result": "binds"}]}
